In data set [1] the target is HCV NS3 full length (bacNS3 derived) (Hepatitis C virus strain H) (UniProt P27958).
Data set [2] deals with HCV NS3 full length (bacNS3-5B derived) (Hepatitis C virus strain H) (UniProt P27958).
Data set [3] has the same target. Conditions: Km for RNA substrate; helicase strand displacement, PIPES pH 6.5, MnCl2, 37 C.

Where two headings read alike, the source gives them in different places.

Chain of HCV NS3 full length (bacNS3-5B derived) (Hepatitis C virus strain H) (P27958 1027-1657): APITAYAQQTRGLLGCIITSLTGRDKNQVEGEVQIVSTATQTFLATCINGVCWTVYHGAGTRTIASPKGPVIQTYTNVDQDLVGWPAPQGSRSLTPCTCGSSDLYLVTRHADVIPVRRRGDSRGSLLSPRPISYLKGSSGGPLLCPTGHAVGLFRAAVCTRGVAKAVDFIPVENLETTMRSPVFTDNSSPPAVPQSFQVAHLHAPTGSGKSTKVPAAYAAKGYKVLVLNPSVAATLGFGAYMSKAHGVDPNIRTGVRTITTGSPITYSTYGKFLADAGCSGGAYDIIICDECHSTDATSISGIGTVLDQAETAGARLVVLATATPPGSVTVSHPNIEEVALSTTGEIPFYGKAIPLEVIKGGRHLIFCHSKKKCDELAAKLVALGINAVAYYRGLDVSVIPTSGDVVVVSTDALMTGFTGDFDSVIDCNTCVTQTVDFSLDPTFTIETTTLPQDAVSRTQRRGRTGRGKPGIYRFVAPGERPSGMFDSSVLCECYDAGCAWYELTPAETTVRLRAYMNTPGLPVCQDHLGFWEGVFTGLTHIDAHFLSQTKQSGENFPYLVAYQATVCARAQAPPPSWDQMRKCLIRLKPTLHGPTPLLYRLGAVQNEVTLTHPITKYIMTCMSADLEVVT
Chain of HCV NS3 full length (bacNS3 derived) (Hepatitis C virus strain H) (P27958 1027-1657): as above

Regarding poly(U), the activity in data set [1] (ATPase rate with poly(U), 0 without) amounted to 659 min⁻¹; in data set [2] (ATPase rate with poly(U), 23 without) it was 1050 min⁻¹.
Turning to “standard RNA helicase substrate (3' and 5' single strand regions)”, the results for the activity in data set [3], in data set [1] (helicase catalytic rate) and in data set [2] (helicase catalytic rate) were 0.5 nM, 0.003 min⁻¹ and 0.01 min⁻¹, respectively.

These data come from patent US20020081574.
